Here are results for 13 molecules from article PMC4999541 (mBio, 2016).

Where two headings read alike, the source gives them in different places. Numbered stars: 1 amine (or outer) side, 2 acyl side, 3 side chain; on linkers, the order of the positions; unused ones are H or OH. Bridge positions count the residues as written; N and C are the ends. Square brackets hold non-standard residues; d marks the D form. Peptide text beside a SMILES is read from it. Adda = CO[C@@H](Cc1ccccc1)[C@@H](C)/C=C(C)/C=C/[C@H](N[*:1])[C@H](C)C(=O)[*:2]; dAsp(3S-Me) = C[C@H](C(=O)[*:3])[C@@H](N[*:1])C(=O)[*:2]; d(γGlu) = O=C(O)[C@@H](CCC(=O)[*:2])N[*:1]; NMeDha = C=C(NC)C(=O)O

The target in experiment [1] is T1, PPZ1cat (Candida albicans, UniProt C4YM68). In words: Pulldown assay with PPZ1cat. To be noted: for Less binding in pulldown by PPZ1 compared to PP1α: densitometry of the gel. The class given is binding. As to the method:
(§1) GADD34_552–567 was purchased. PNUTS394–433 and spinophilin417–602 were purified according to a method described previously ([19], [27]). […]. PP1α7–330 and PPZ1cat were purified by the method described above but retained the His tag. After SEC (20 mM Tris [pH 8.0], 500 mM NaCl, 0.5 mM TCEP, 1 mM MnCl2), 50% (vol/vol) glycerol was added to both PP1α7–330 and PPZ1cat. The final concentrations of the proteins were adjusted to 5 µM. […] of each PP1 regulator was added into 500 µl of PP1α7–330 or PPZ1cat. The mixture was incubated under rocking (4°C) for 60 min to allow for complex formation. A 15-μl bed volume of Ni-NTA resin (GE Healthcare) was added into tubes, and the mixture was incubated at 4°C for 60 min. The beads were pelleted by centrifugation (2000 × g) and washed three times with 500 µl of SEC buffer. Forty microliters of SDS loading buffer was added to the beads, and the samples were boiled at 80°C for 5 min and analyzed on NuPAGE 4 to 12% bis-Tris gels. Gels were stained overnight with SYPRO ruby protein gel stain (Life Technologies) according to the manufacturer’s protocols and scanned using a Typhoon 9410 laser scanner (GE Healthcare) with an excitation wavelength of 457 nm and emission filter of 610 nm following destaining. Densitometry was performed using ImageQuant TL 7.0 software for quantification of the band intensity.

Experiment [2] has as its target T2, PP1α (Homo sapiens, UniProt P62136). As to the kind of experiment: Phosphatase inhibition assay, pNPP substrate, PP1α. The class given is biochemical. On the set-up: made in house; host or cells: E. coli.
Target sequence in this assay (P62136 whole entry): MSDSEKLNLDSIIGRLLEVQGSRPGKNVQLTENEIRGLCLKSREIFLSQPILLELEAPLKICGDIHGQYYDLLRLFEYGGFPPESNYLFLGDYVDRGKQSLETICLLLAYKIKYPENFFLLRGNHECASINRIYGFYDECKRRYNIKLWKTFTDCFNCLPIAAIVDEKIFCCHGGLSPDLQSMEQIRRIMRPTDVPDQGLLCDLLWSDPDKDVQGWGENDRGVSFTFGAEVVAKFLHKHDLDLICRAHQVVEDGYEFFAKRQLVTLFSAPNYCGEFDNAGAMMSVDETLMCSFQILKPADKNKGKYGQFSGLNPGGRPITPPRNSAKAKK
The target of experiment [3] is T1, PPZ1cat. As to the kind of experiment: Phosphatase inhibition assay, pNPP substrate, PPZ1cat. It counts as biochemical.
The subject of experiment [4] is PP1c. The class given is biochemical, rabbit.
In experiment [5] the target is T1, PPZ1cat. It counts as biochemical.
Experiment [6] addresses PPZ1FL (Candida albicans, UniProt C4YM68). It counts as biochemical.
Experiment [7] concerns the target T3, PP1α7–330 (Homo sapiens, UniProt P62136).
T3 construct: PP1α7–330 and PPZ1cat were purified by the method described above; made in house; host or cells: E. coli
As to the kind of experiment: Pulldown assay with PP1α. It counts as binding. The following applies: compared to wild-type spinophilin; in words. As to the method:
as §1

For experiment [8], the target named is C. albicans PPZ1 C-terminal catalytic domain (aa 171 to 484), His6 tag removed (Candida albicans) (UniProt Q59U06).
Experiment [9] has as its target human PP1α(7-330), His tag retained (human) (UniProt P62136).
Experiment [10] addresses catalytic subunit of rabbit skeletal muscle protein phosphatase 1 (rabbit) (UniProt P62139).
Target sequence in this assay (P62139 whole entry): as the sequence (P62136 whole entry) above
Experiment [11] addresses T4, full-length C. albicans PPZ1 (Candida albicans) (UniProt Q59U06).
T4 sequence: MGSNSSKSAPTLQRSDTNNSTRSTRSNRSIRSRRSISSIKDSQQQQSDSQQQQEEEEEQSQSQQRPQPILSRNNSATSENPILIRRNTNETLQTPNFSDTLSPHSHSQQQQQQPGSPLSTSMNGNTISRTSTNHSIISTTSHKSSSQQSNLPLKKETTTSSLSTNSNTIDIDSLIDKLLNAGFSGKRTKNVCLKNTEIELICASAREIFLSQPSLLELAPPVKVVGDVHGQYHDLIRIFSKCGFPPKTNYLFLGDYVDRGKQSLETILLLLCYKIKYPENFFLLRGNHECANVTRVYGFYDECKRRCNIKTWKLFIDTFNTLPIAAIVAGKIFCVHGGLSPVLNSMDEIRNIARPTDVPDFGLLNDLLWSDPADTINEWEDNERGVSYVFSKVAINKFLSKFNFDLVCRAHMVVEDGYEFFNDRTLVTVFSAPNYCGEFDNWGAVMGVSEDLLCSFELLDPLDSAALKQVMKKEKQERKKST

The target in experiment [12] is T2, PP1α. To be noted: cited from earlier work.
Target sequence in this assay (P62136 2-330): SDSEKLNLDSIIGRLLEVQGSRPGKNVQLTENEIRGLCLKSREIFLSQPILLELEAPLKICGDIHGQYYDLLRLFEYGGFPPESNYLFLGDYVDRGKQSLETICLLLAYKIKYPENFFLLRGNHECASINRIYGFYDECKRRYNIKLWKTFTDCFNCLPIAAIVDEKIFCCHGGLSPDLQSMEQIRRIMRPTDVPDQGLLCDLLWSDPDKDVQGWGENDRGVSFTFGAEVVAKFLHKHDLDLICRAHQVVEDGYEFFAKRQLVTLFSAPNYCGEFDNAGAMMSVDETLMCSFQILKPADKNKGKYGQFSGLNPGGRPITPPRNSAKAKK
Experiment [13] concerns the target T2, PP1α. To be noted: cited from earlier work. This is another data set of the same source.
Target sequence in this assay (P62136 2-330): as above
In experiment [14] the target is T2, PP1α. To be noted: cited from earlier work. The source holds these as a separate data set.
Target sequence in this assay (P62136 2-330): as above
Experiment [15] deals with T5, C. albicans PPZ1 C-terminal catalytic domain (aa 171 to 484), His6 tag removed (Candida albicans, UniProt Q59U06 169-482).
T5 construct: also called PPZ1cat; CaPPZ1
T5 sequence: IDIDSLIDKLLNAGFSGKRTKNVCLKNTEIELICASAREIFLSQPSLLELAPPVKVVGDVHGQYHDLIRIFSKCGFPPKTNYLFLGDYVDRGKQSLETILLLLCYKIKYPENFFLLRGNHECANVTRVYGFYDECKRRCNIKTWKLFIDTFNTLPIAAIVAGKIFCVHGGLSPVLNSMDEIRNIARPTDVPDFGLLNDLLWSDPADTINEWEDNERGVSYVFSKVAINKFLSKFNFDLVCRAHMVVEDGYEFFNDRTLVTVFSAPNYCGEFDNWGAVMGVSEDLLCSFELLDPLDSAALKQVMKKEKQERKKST
In words: ITC. The following applies: both partners purified.

Experiment [16] addresses C. albicans PPZ1 C-terminal catalytic domain (aa 171 to 484), His6 tag removed (Candida albicans) (UniProt Q59U06). This is another data set of the same source.
The target in experiment [17] is catalytic subunit of rabbit skeletal muscle protein phosphatase 1 (rabbit) (UniProt P62139). The source holds these as a separate data set.
Target sequence in this assay (P62139 2-330): as the sequence (P62136 2-330) above
Experiment [18] concerns the target T4, full-length C. albicans PPZ1 (Candida albicans). This is another data set of the same source.

T1 sequence (C4YM68 entry or part of it): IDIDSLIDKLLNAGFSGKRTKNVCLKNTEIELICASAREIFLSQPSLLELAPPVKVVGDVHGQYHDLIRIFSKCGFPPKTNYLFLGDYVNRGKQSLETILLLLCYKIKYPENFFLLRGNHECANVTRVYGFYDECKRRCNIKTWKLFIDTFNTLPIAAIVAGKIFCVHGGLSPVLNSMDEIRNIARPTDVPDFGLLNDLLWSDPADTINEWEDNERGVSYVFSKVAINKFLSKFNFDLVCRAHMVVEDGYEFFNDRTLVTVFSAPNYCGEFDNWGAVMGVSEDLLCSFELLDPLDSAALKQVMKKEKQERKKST
T3 sequence (P62136 7-330): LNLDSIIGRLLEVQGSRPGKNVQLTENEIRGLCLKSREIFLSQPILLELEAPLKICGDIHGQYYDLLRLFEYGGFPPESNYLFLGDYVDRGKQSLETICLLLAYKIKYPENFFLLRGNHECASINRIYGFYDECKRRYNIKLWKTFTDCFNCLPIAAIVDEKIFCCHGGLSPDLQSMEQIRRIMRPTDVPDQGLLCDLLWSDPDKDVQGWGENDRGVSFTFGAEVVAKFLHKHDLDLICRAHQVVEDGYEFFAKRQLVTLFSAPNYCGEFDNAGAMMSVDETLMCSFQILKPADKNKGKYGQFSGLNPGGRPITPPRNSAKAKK
PPZ1FL, sequence (C4YM68 entry or part of it): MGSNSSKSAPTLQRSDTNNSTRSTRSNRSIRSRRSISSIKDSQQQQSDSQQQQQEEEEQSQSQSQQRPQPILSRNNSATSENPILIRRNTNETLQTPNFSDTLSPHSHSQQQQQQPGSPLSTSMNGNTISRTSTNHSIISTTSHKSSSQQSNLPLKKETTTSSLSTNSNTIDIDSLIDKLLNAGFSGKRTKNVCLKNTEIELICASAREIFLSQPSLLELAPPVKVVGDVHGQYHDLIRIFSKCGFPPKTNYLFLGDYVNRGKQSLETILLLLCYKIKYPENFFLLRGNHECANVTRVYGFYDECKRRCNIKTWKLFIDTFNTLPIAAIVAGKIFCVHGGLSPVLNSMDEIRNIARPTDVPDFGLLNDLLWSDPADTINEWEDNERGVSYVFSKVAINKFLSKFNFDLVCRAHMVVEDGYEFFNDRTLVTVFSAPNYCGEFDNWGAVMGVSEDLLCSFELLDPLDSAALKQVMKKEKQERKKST
human PP1α(7-330), His tag retained (human), sequence (P62136 7-330): as the sequence (P62136 7-330) above

With “spinophilin417–602: minimal PP1-binding domain of PP1 regulator spinophilin”, the “Less binding in pulldown by PPZ1 compared to PP1α” value in experiment [1] was ~ 85%. For orientation: IC50 means the point on the concentration scale where inhibition reaches its midpoint. Take `C=C1C(=O)N[C@H](C)C(=O)N[C@@H](CC(C)C)C(=O)N[C@@H](C(=O)O)[C@H](C)C(=O)N[C@@H](CCCNC(=N)N)C(=O)N[C@@H](/C=C/C(C)=C/[C@H](C)[C@H](Cc2ccccc2)OC)[C@H](C)C(=O)N[C@@H](C(=O)O)CCC(=O)N1C` [MC, microcystin-LR] (R[Adda][d(γGlu)][NMeDha][dA]L[dAsp(3S-Me)]-OH; lactam N-7): the IC50 in experiment [2] is 4.4 nM; in experiment [3], 11.8 nM; in experiment [4], 0.43 nM; in [5] (read-out: IC50 of MC) it was 0.72 nM; in experiment [6] (read-out: IC50 of MC) it was 0.96 nM. As for “SpinoR469D: spinophilin417–602 variant with Arg motif mutation R469D”, in [7], the “Amount of spinophilin variant pulled down by PP1α” value is “reduces the amount of spinophilin pulled down”. Turning to “SpinoR469E: spinophilin417–602 variant with Arg motif mutation R469E”, in experiment [7], the “Amount of spinophilin variant pulled down by PP1α” value is “reduces the amount of spinophilin pulled down”. microcystin-LR (peptide): the inhibition of phosphatase activity, 32P-labeled MLC20 (pMLC) substrate, IC50 in experiment [8] was determined as 0.72 nM; in experiment [10], 0.43 nM; in experiment [11], 0.96 nM. Further, the inhibition of phosphatase activity, pNPP substrate, IC50 was found to be 11.8 nM in experiment [8] and 4.4 nM in [9]. One may read the Kd as a measure of binding affinity in units of concentration. Consider GADD34 552-567 (from UniProt O75807), for which, in experiment [12], the Kd is 62 nM. With “PNUTS394–433: minimal PP1-binding domain of PP1 regulator PNUTS (RVxF-ΦΦ-Arg) (RKRKTVTWPEEGKLREYFYFELDETERVNVNKIKDFGEAA)”, the “Less binding in pulldown by PPZ1 compared to PP1α” value in [1] is given as ~ 85%.

In the case of PNUTS 394-433 (from UniProt Q96QC0), in [13], the Kd is 9.3 nM. As for “GADD34_552–567: purchased peptide, minimal PP1-binding domain of regulator GADD34 with RVxF and ΦΦ motifs (KARKVRFSEKVTVHFL)”, the “Binding in pulldown by PPZ1cat compared to PP1α” value in [1] (in words) is given as “less effectively”. As for “spinophilin 417-602 (from UniProt O35274)”, in experiment [14], the Kd is 8.7 nM. For KARKVRFSEKVTVHFL (peptide, UniProt O75807 552-567, looked up, also called G34) [GADD34(552-567) peptide], in experiment [15], binding was characterised by a dissociation constant (Kd) of 1150 ± 90 nM.

B1: I-2: inhibitor-2, a specific protein inhibitor of PP1; recombinant 6×His-tagged (protein)
chain: AASTASHRPIKGILKNKTSTTSSMVASAEQPRGNVDEELSKKSQKWDEMNILATYHPADKDYGLMKIDEPSTPYHSMMGDDEDACSDTEATEAMAPDILARKLAAAEGLEPKYRIQEQESSGEEDSDLSPEEREKKRQFEMKRKLHYNEGLNIKLARQLISKDLHDDDEDEEMLETADGESMNTEESNQGSTPSDQQQNKLRSS
Consider B1, for which the concentration for half-maximal inhibition (IC50) was determined as 7 nM in [5] (PPZ1cat, recombinant I-2, read-out: IC50 of I-2) and 278 nM in experiment [6] (PPZ1FL, includes N-terminal IDP domain, read-out: IC50 of I-2).

B2: recombinant 6×His-tagged inhibitor-2 (natural protein)
chain: MAASTASHRPIKGILKNKTSTTSSMVASAEQPRGNVDEELSKKSQKWDEMNILATYHPADKDYGLMKIDEPSTPYHSMMGDDEDACSDTEATEAMAPDILARKLAAAEGLEPKYRIQEQESSGEEDSDLSPEEREKKRQFEMKRKLHYNEGLNIKLARQLISKDLHDDDEDEEMLETADGESMNTEESNQGSTPSDQQQNKLRSS
As for B2, the inhibition of phosphatase activity by increasing concentrations of I-2, IC50 in experiment [16] was determined as 7 nM; in [17], 12 nM; in [18] it was 278 nM.
